Literature values in patent US20250052762A1, “PEPTIDASE CLEAVABLE SUBSTRATES AND METHODS OF IDENTIFICATION AND USE THEREOF” (Alaunus Biosciences, Inc., priority 2020, published 2025).
Entries after “also recorded” stand apart in the source; their conditions may differ. Square brackets hold non-standard residues; d marks the D form. Ends that are not written are not given here. * marks the point of attachment. MeOSuc = COC(=O)CCC(=O)*; 2Abz = Nc1ccccc1C(=O)O; dnp = not defined here; SBn = c1ccc(CS*)cc1

Legend:
granzyme B = granzyme B (Homo sapiens, UniProt P10144); conditions: for measured catalytic efficiency: candidate natural substrates, fluorescence assay (Boivin et al., 2012)
Sequence of granzyme B (P10144 21-247): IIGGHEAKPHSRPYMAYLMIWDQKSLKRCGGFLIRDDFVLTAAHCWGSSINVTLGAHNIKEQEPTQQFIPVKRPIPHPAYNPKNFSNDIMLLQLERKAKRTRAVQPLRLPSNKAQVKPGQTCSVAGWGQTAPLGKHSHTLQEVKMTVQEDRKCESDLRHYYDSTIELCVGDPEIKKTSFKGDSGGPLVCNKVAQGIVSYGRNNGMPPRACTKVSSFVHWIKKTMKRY

MMP14 = MMP14 (Homo sapiens, UniProt P50281); conditions: for Michaelis constant (KM): magnitude in words
neutrophil elastase = biological target: T1, neutrophil elastase (Homo sapiens, UniProt P08246)
T1 sequence (P08246 30-267): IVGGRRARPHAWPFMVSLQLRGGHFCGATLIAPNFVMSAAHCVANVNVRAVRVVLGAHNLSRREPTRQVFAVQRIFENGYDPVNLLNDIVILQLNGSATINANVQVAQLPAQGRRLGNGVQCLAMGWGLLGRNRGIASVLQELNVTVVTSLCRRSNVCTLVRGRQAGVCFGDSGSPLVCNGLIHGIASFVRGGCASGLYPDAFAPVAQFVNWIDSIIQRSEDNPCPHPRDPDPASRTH

[1] = magnitude in words, top-most active substrates in BRENDA database
[2] = top-most active substrates in BRENDA database

For “2-aminobenzoyl-IEPDSSMESK-dnp ([2Abz]IEPDSSMESK-dnp; reading uncertain; also: printed as 2-aminobenzoyl-IEPDSSMESK-dnp) [fluorescent tool substrate for granzyme B]”, the estimated catalytic efficiency (granzyme B; estimated from KM and kcat, fluorescence assay (Sun et al., 2001)) is given as 758 mM⁻¹ s⁻¹, the “Michaelis constant (KM)” value (granzyme B; [1]) is given as “micromolar” and the “turnover number (kcat)” value (granzyme B; [2]) is given as 1 to 5 s⁻¹.

In the case of “collagen I alpha-1: collagen I alpha-1 chain, natural substrate of MMP14”, the “Michaelis constant (KM)” value (MMP14; BRENDA database) is listed as “piocomolar; also recorded: picomolar”.

In the case of “collagen I alpha-2: collagen I alpha-2 chain, natural substrate of MMP14”, the “Michaelis constant (KM)” value (MMP14; BRENDA database) is listed as “piocomolar; also recorded: picomolar”.

In the case of “methoxycoumarin-4-acetyl-Lys-Pro-Leu-Gly-Leu-Lys (2,4-dinitrophenyl)-Ala-Arg-NH2 ({methoxycoumarin‑4‑acetyl}-KPLGLK(2,4‑dinitrophenyl)AR-NH2; not fully specified; printed as methoxycoumarin-4-acetyl-Lys-Pro-Leu-Gly-Leu-Lys (2,4-dinitrophenyl)-Ala-Arg-NH₂)”, the catalytic efficiency (MMP14; measured by fluorescence assay, BRENDA database) is given as 550 to 2429 mM⁻¹ s⁻¹ and the turnover number (MMP14; reported in BRENDA database) is given as 0.33 to 6.8 s⁻¹.

For “methoxysuccinyl-Ala-Ala-Pro-Val-thiobenzyl ester (MeOSuc-AAPV-SBn; SMILES COC(=O)CCC(=O)N[C@@H](C)C(=O)N[C@@H](C)C(=O)N1CCC[C@H]1C(=O)N[C@H](C(=O)SCc1ccccc1)C(C)C) [fluorescent tool substrate for neutrophil elastase]”, the estimated catalytic efficiency (neutrophil elastase; estimated from KM and kcat, fluorescence assay (Stein et al., 1987)) is given as 9565 mM⁻¹ s⁻¹, the “Michaelis constant (KM)” value (neutrophil elastase; [1]) is given as “micromolar” and the “turnover number (kcat)” value (neutrophil elastase; [2]) is given as “up to 22 s^−1”.

B1: beta-glycan: candidate natural substrate of granzyme B (protein, UniProt Q03167 21-851, looked up)
Transforming growth factor …: GPEPGALCELSPVSASHPVQALMESFTVLSGCASRGTTGLPQEVHVLNLRTAGQGPGQLQREVTLHLNPISSVHIHHKSVVFLLNSPHPLVWHLKTERLATGVSRLFLVSEGSVVQFSSANFSLTAETEERNFPHGNEHLLNWARKEYGAVTSFTELKIARNIYIKVGEDQVFPPKCNIGKNFLSLNYLAEYLQPKAAEGCVMSSQPQNEEVHIIELITPNSNPYSAFQVDITIDIRPSQEDLEVVKNLILILKCKKSVNWVIKSFDVKGSLKIIAPNSIGFGKESERSMTMTKSIRDDIPSTQGNLVKWALDNGYSPITSYTMAPVANRFHLRLENNAEEMGDEEVHTIPPELRILLDPGALPALQNPPIRGGEGQNGGLPFPFPDISRRVWNEEGEDGLPRPKDPVIPSIQLFPGLREPEEVQGSVDIALSVKCDNEKMIVAVEKDSFQASGYSGMDVTLLDPTCKAKMNGTHFVLESPLNGCGTRPRWSALDGVVYYNSIVIQVPALGDSSGWPDGYEDLESGDNGFPGDMDEGDASLFTRPEIVVFNCSLQQVRNPSSFQEQPHGNITFNMELYNTDLFLVPSQGVFSVPENGHVYVEVSVTKAEQELGFAIQTCFISPYSNPDRMSHYTIIENICPKDESVKFYSPKRVHFPIPQADMDKKRFSFVFKPVFNTSLLFLQCELTLCTKMEKHPQKLPKCVPPDEACTSLDASIIWAMMQNKKTFTKPLAVIHHEAESKEKGPSMKEPNPISPPIFHGLDTLTVMGIAFAAFVIGALLTGALWYIYSHTGETAGRQQVPTSPPASENSSAAHSIGSTQSTPCSSSSTA
For B1, the measured catalytic efficiency (granzyme B) is listed as 5.9 mM⁻¹ s⁻¹.

B2: biglycan: candidate natural substrate of granzyme B (protein, UniProt P21810 38-368, looked up)
Biglycan: DEEASGADTSGVLDPDSVTPTYSAMCPFGCHCHLRVVQCSDLGLKSVPKEISPDTTLLDLQNNDISELRKDDFKGLQHLYALVLVNNKISKIHEKAFSPLRKLQKLYISKNHLVEIPPNLPSSLVELRIHDNRIRKVPKGVFSGLRNMNCIEMGGNPLENSGFEPGAFDGLKLNYLRISEAKLTGIPKDLPETLNELHLDHNKIQAIELEDLLRYSKLYRLGLGHNQIRMIENGSLSFLPTLRELHLDNNKLARVPSGLPDLKLLQVVYLHSNNITKVGVNDFCPMGFGVKRAYYNGISLFNNPVPYWEVQPATFRCVTDRLAIQFGNYKK
In the case of B2, the measured catalytic efficiency (granzyme B) is given as 1.7 mM⁻¹ s⁻¹.

B3: decorin: candidate natural substrate of granzyme B (protein, UniProt P07585 31-359, looked up)
Decorin: DEASGIGPEVPDDRDFEPSLGPVCPFRCQCHLRVVQCSDLGLDKVPKDLPPDTTLLDLQNNKITEIKDGDFKNLKNLHALILVNNKISKVSPGAFTPLVKLERLYLSKNQLKELPEKMPKTLQELRAHENEITKVRKVTFNGLNQMIVIELGTNPLKSSGIENGAFQGMKKLSYIRIADTNITSIPQGLPPSLTELHLDGNKISRVDAASLKGLNNLAKLGLSFNSISAVDNGSLANTPHLRELHLDNNKLTRVPGGLAEHKYIQVVYLHNNNISVVGSSDFCPPGHNTKKASYSGVSLFSNPVQYWEIQPSTFRCVYVRSAIQLGNYK
For B3, the measured catalytic efficiency (granzyme B) is given as 1 mM⁻¹ s⁻¹.
